Patent publication US20210388087A1 (Chugai, published 2021)

B1: H183/L072 VL N30F (antibody, name in Kabat numbering, V domains shown)
VH: QVQLVESGGGLVQPGRSLRLSCAASGFTFSNAWMHWVRQAPGKGLEWVAQIKDKGNAYAAYYAPSVKGRFTISRDDSKNSIYLQMNSLKTEDTAVYYCHYVHYASASTVLPAFGVDAWGQGTTVTVSS
VL: DIVMTQSPLSLPVTPGEPASISCQASQELVHMNRFTYLHWYQQKPGQAPRLLIYKVSNRFPGVPDRFSGSGSGTDFTLKISRVEAEDVGVYYCAQGTSVPFTFGQGTKLEIK
notes: Dual-Ig
B2: H183/L072 VL N30G (antibody, name in Kabat numbering, V domains shown)
VH: QVQLVESGGGLVQPGRSLRLSCAASGFTFSNAWMHWVRQAPGKGLEWVAQIKDKGNAYAAYYAPSVKGRFTISRDDSKNSIYLQMNSLKTEDTAVYYCHYVHYASASTVLPAFGVDAWGQGTTVTVSS
VL: DIVMTQSPLSLPVTPGEPASISCQASQELVHMNRGTYLHWYQQKPGQAPRLLIYKVSNRFPGVPDRFSGSGSGTDFTLKISRVEAEDVGVYYCAQGTSVPFTFGQGTKLEIK
notes: Dual-Ig
B3: H183/L072 VL N30H (antibody, name in Kabat numbering, V domains shown)
VH: QVQLVESGGGLVQPGRSLRLSCAASGFTFSNAWMHWVRQAPGKGLEWVAQIKDKGNAYAAYYAPSVKGRFTISRDDSKNSIYLQMNSLKTEDTAVYYCHYVHYASASTVLPAFGVDAWGQGTTVTVSS
VL: DIVMTQSPLSLPVTPGEPASISCQASQELVHMNRHTYLHWYQQKPGQAPRLLIYKVSNRFPGVPDRFSGSGSGTDFTLKISRVEAEDVGVYYCAQGTSVPFTFGQGTKLEIK
notes: Dual-Ig
B4: H183/L072 VL N30I (antibody, name in Kabat numbering, V domains shown)
VH: QVQLVESGGGLVQPGRSLRLSCAASGFTFSNAWMHWVRQAPGKGLEWVAQIKDKGNAYAAYYAPSVKGRFTISRDDSKNSIYLQMNSLKTEDTAVYYCHYVHYASASTVLPAFGVDAWGQGTTVTVSS
VL: DIVMTQSPLSLPVTPGEPASISCQASQELVHMNRITYLHWYQQKPGQAPRLLIYKVSNRFPGVPDRFSGSGSGTDFTLKISRVEAEDVGVYYCAQGTSVPFTFGQGTKLEIK
notes: Dual-Ig
B5: H183/L072 VL N30K (antibody, name in Kabat numbering, V domains shown)
VH: QVQLVESGGGLVQPGRSLRLSCAASGFTFSNAWMHWVRQAPGKGLEWVAQIKDKGNAYAAYYAPSVKGRFTISRDDSKNSIYLQMNSLKTEDTAVYYCHYVHYASASTVLPAFGVDAWGQGTTVTVSS
VL: DIVMTQSPLSLPVTPGEPASISCQASQELVHMNRKTYLHWYQQKPGQAPRLLIYKVSNRFPGVPDRFSGSGSGTDFTLKISRVEAEDVGVYYCAQGTSVPFTFGQGTKLEIK
notes: Dual-Ig
B6: H183/L072 VL N30L (antibody, name in Kabat numbering, V domains shown)
VH: QVQLVESGGGLVQPGRSLRLSCAASGFTFSNAWMHWVRQAPGKGLEWVAQIKDKGNAYAAYYAPSVKGRFTISRDDSKNSIYLQMNSLKTEDTAVYYCHYVHYASASTVLPAFGVDAWGQGTTVTVSS
VL: DIVMTQSPLSLPVTPGEPASISCQASQELVHMNRLTYLHWYQQKPGQAPRLLIYKVSNRFPGVPDRFSGSGSGTDFTLKISRVEAEDVGVYYCAQGTSVPFTFGQGTKLEIK
notes: Dual-Ig
B7: H183/L072 VL N30M (antibody, name in Kabat numbering, V domains shown)
VH: QVQLVESGGGLVQPGRSLRLSCAASGFTFSNAWMHWVRQAPGKGLEWVAQIKDKGNAYAAYYAPSVKGRFTISRDDSKNSIYLQMNSLKTEDTAVYYCHYVHYASASTVLPAFGVDAWGQGTTVTVSS
VL: DIVMTQSPLSLPVTPGEPASISCQASQELVHMNRMTYLHWYQQKPGQAPRLLIYKVSNRFPGVPDRFSGSGSGTDFTLKISRVEAEDVGVYYCAQGTSVPFTFGQGTKLEIK
notes: Dual-Ig
B8: H183/L072 VL N30P (antibody, name in Kabat numbering, V domains shown)
VH: QVQLVESGGGLVQPGRSLRLSCAASGFTFSNAWMHWVRQAPGKGLEWVAQIKDKGNAYAAYYAPSVKGRFTISRDDSKNSIYLQMNSLKTEDTAVYYCHYVHYASASTVLPAFGVDAWGQGTTVTVSS
VL: DIVMTQSPLSLPVTPGEPASISCQASQELVHMNRPTYLHWYQQKPGQAPRLLIYKVSNRFPGVPDRFSGSGSGTDFTLKISRVEAEDVGVYYCAQGTSVPFTFGQGTKLEIK
notes: Dual-Ig
B9: H183/L072 VL N30Q (antibody, name in Kabat numbering, V domains shown)
VH: QVQLVESGGGLVQPGRSLRLSCAASGFTFSNAWMHWVRQAPGKGLEWVAQIKDKGNAYAAYYAPSVKGRFTISRDDSKNSIYLQMNSLKTEDTAVYYCHYVHYASASTVLPAFGVDAWGQGTTVTVSS
VL: DIVMTQSPLSLPVTPGEPASISCQASQELVHMNRQTYLHWYQQKPGQAPRLLIYKVSNRFPGVPDRFSGSGSGTDFTLKISRVEAEDVGVYYCAQGTSVPFTFGQGTKLEIK
notes: Dual-Ig
B10: H183/L072 VL N30R (antibody, name in Kabat numbering, V domains shown)
VH: QVQLVESGGGLVQPGRSLRLSCAASGFTFSNAWMHWVRQAPGKGLEWVAQIKDKGNAYAAYYAPSVKGRFTISRDDSKNSIYLQMNSLKTEDTAVYYCHYVHYASASTVLPAFGVDAWGQGTTVTVSS
VL: DIVMTQSPLSLPVTPGEPASISCQASQELVHMNRRTYLHWYQQKPGQAPRLLIYKVSNRFPGVPDRFSGSGSGTDFTLKISRVEAEDVGVYYCAQGTSVPFTFGQGTKLEIK
notes: Dual-Ig
B11: H183/L072 VL N30S (antibody, name in Kabat numbering, V domains shown)
VH: QVQLVESGGGLVQPGRSLRLSCAASGFTFSNAWMHWVRQAPGKGLEWVAQIKDKGNAYAAYYAPSVKGRFTISRDDSKNSIYLQMNSLKTEDTAVYYCHYVHYASASTVLPAFGVDAWGQGTTVTVSS
VL: DIVMTQSPLSLPVTPGEPASISCQASQELVHMNRSTYLHWYQQKPGQAPRLLIYKVSNRFPGVPDRFSGSGSGTDFTLKISRVEAEDVGVYYCAQGTSVPFTFGQGTKLEIK
notes: Dual-Ig
B12: H183/L072 VL N30T (antibody, name in Kabat numbering, V domains shown)
VH: QVQLVESGGGLVQPGRSLRLSCAASGFTFSNAWMHWVRQAPGKGLEWVAQIKDKGNAYAAYYAPSVKGRFTISRDDSKNSIYLQMNSLKTEDTAVYYCHYVHYASASTVLPAFGVDAWGQGTTVTVSS
VL: DIVMTQSPLSLPVTPGEPASISCQASQELVHMNRTTYLHWYQQKPGQAPRLLIYKVSNRFPGVPDRFSGSGSGTDFTLKISRVEAEDVGVYYCAQGTSVPFTFGQGTKLEIK
notes: Dual-Ig
B13: H183/L072 VL N30V (antibody, name in Kabat numbering, V domains shown)
VH: QVQLVESGGGLVQPGRSLRLSCAASGFTFSNAWMHWVRQAPGKGLEWVAQIKDKGNAYAAYYAPSVKGRFTISRDDSKNSIYLQMNSLKTEDTAVYYCHYVHYASASTVLPAFGVDAWGQGTTVTVSS
VL: DIVMTQSPLSLPVTPGEPASISCQASQELVHMNRVTYLHWYQQKPGQAPRLLIYKVSNRFPGVPDRFSGSGSGTDFTLKISRVEAEDVGVYYCAQGTSVPFTFGQGTKLEIK
notes: Dual-Ig
B14: H183/L072 VL N30W (antibody, name in Kabat numbering, V domains shown)
VH: QVQLVESGGGLVQPGRSLRLSCAASGFTFSNAWMHWVRQAPGKGLEWVAQIKDKGNAYAAYYAPSVKGRFTISRDDSKNSIYLQMNSLKTEDTAVYYCHYVHYASASTVLPAFGVDAWGQGTTVTVSS
VL: DIVMTQSPLSLPVTPGEPASISCQASQELVHMNRWTYLHWYQQKPGQAPRLLIYKVSNRFPGVPDRFSGSGSGTDFTLKISRVEAEDVGVYYCAQGTSVPFTFGQGTKLEIK
notes: Dual-Ig
B15: H183/L072 VL N30Y (antibody, name in Kabat numbering, V domains shown)
VH: QVQLVESGGGLVQPGRSLRLSCAASGFTFSNAWMHWVRQAPGKGLEWVAQIKDKGNAYAAYYAPSVKGRFTISRDDSKNSIYLQMNSLKTEDTAVYYCHYVHYASASTVLPAFGVDAWGQGTTVTVSS
VL: DIVMTQSPLSLPVTPGEPASISCQASQELVHMNRYTYLHWYQQKPGQAPRLLIYKVSNRFPGVPDRFSGSGSGTDFTLKISRVEAEDVGVYYCAQGTSVPFTFGQGTKLEIK
notes: Dual-Ig
B16: H183/L072 VL N53A (antibody, name in Kabat numbering, V domains shown)
VH: QVQLVESGGGLVQPGRSLRLSCAASGFTFSNAWMHWVRQAPGKGLEWVAQIKDKGNAYAAYYAPSVKGRFTISRDDSKNSIYLQMNSLKTEDTAVYYCHYVHYASASTVLPAFGVDAWGQGTTVTVSS
VL: DIVMTQSPLSLPVTPGEPASISCQASQELVHMNRNTYLHWYQQKPGQAPRLLIYKVSARFPGVPDRFSGSGSGTDFTLKISRVEAEDVGVYYCAQGTSVPFTFGQGTKLEIK
notes: Dual-Ig
B17: H183/L072 VL N53D (antibody, name in Kabat numbering, V domains shown)
VH: QVQLVESGGGLVQPGRSLRLSCAASGFTFSNAWMHWVRQAPGKGLEWVAQIKDKGNAYAAYYAPSVKGRFTISRDDSKNSIYLQMNSLKTEDTAVYYCHYVHYASASTVLPAFGVDAWGQGTTVTVSS
VL: DIVMTQSPLSLPVTPGEPASISCQASQELVHMNRNTYLHWYQQKPGQAPRLLIYKVSDRFPGVPDRFSGSGSGTDFTLKISRVEAEDVGVYYCAQGTSVPFTFGQGTKLEIK
notes: Dual-Ig
B18: H183/L072 VL N53E (antibody, name in Kabat numbering, V domains shown)
VH: QVQLVESGGGLVQPGRSLRLSCAASGFTFSNAWMHWVRQAPGKGLEWVAQIKDKGNAYAAYYAPSVKGRFTISRDDSKNSIYLQMNSLKTEDTAVYYCHYVHYASASTVLPAFGVDAWGQGTTVTVSS
VL: DIVMTQSPLSLPVTPGEPASISCQASQELVHMNRNTYLHWYQQKPGQAPRLLIYKVSERFPGVPDRFSGSGSGTDFTLKISRVEAEDVGVYYCAQGTSVPFTFGQGTKLEIK
notes: Dual-Ig
B19: H183/L072 VL N53F (antibody, name in Kabat numbering, V domains shown)
VH: QVQLVESGGGLVQPGRSLRLSCAASGFTFSNAWMHWVRQAPGKGLEWVAQIKDKGNAYAAYYAPSVKGRFTISRDDSKNSIYLQMNSLKTEDTAVYYCHYVHYASASTVLPAFGVDAWGQGTTVTVSS
VL: DIVMTQSPLSLPVTPGEPASISCQASQELVHMNRNTYLHWYQQKPGQAPRLLIYKVSFRFPGVPDRFSGSGSGTDFTLKISRVEAEDVGVYYCAQGTSVPFTFGQGTKLEIK
notes: Dual-Ig
B20: H183/L072 VL N53G (antibody, name in Kabat numbering, V domains shown)
VH: QVQLVESGGGLVQPGRSLRLSCAASGFTFSNAWMHWVRQAPGKGLEWVAQIKDKGNAYAAYYAPSVKGRFTISRDDSKNSIYLQMNSLKTEDTAVYYCHYVHYASASTVLPAFGVDAWGQGTTVTVSS
VL: DIVMTQSPLSLPVTPGEPASISCQASQELVHMNRNTYLHWYQQKPGQAPRLLIYKVSGRFPGVPDRFSGSGSGTDFTLKISRVEAEDVGVYYCAQGTSVPFTFGQGTKLEIK
notes: Dual-Ig
B21: H183/L072 VL N53H (antibody, name in Kabat numbering, V domains shown)
VH: QVQLVESGGGLVQPGRSLRLSCAASGFTFSNAWMHWVRQAPGKGLEWVAQIKDKGNAYAAYYAPSVKGRFTISRDDSKNSIYLQMNSLKTEDTAVYYCHYVHYASASTVLPAFGVDAWGQGTTVTVSS
VL: DIVMTQSPLSLPVTPGEPASISCQASQELVHMNRNTYLHWYQQKPGQAPRLLIYKVSHRFPGVPDRFSGSGSGTDFTLKISRVEAEDVGVYYCAQGTSVPFTFGQGTKLEIK
notes: Dual-Ig

Each binder was assayed against T1, Human CD137 ECD (human) (assay: Biacore SPR, vs parent H183/L072).
T1 construct: entry includes C-terminal His-tag and biotin acceptor peptide; also called human CD137 extracellular domain; 4-1BB
T1 sequence (chain, as listed by the source limits assumed): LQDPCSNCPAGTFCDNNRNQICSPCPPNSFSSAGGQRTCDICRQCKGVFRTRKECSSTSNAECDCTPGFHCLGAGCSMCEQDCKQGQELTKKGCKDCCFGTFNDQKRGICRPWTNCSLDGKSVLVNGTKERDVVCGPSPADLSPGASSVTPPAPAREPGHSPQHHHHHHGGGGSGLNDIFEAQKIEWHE

fold change of affinity	Binder
0.9 fold	B1
0.9 fold	B2
1 fold	B3
0.3 fold	B4
0.6 fold	B5
0.3 fold	B6
1.8 fold	B7
0.4 fold	B8
1 fold	B9
0.5 fold	B10
0.2 fold	B11
0.3 fold	B12
0.7 fold	B13
0.9 fold	B14
0.6 fold	B15
0.7 fold	B16
0.3 fold	B17
0.2 fold	B18
0.3 fold	B19
0.6 fold	B20
0.5 fold	B21
